Data as given in patent EP4585618A1 (Jiangsu Hengrui Pharmaceuticals Co., Ltd., dated 2025).

B1: humanized antibody huP2-C6 (antibody, human IgG1, kappa, L234A L235A, V domains shown)
VH: EVQLVQSGAEVKKPGASVKVSCKASGYTFTDYYIHWVRQAPGQGLEWMGYIYPDTGYSGYNQKFKGRVTMTVDKSTSTAYMELRSLRSDDTAVYYCTRRGDYSGVHFDYWGQGTTVTVSS
VL: DIVLTQSPDSLAVSLGERATINCRASESVNNYGVGFLHWYQQKPGQPPKLLIYRASTLESGIPDRFSGSGSGTDFTLTISSLQAEDVAVYYCQHSYKDPPWTFGGGTKVEIKR
notes: Full chains; also called P2-C6H7L1
B2: fully human-derived antibody P2m (antibody, human IgG1, kappa, L234A L235A, V domains shown)
VH: QVQLVQSGAEVKKPGSSVKVSCKASGYTFTSYDISWVRQAPGQGLEWMGGIIPIFGTANYAQKFQGRVTITADESTSTAYMELSSLRSEDTAVYYCTAGIFLATAYWGQGTLVTVSS
VL: DIQMTQSPSSMSASVGDRVTISCQASQDIQNYLNWYQQRPGQAPKLLIYDASTLETGVPSRFSGSGSGTYFTLTISSLQPEDVATYYCQQYENVPITFGQGTRLEIKR
notes: Full chains
B3: humanized antibody huP2-E8 (antibody, human IgG4 S228P, kappa, F234A L235A, V domains shown)
VH: EVQLVESGGGLVKPGGSLRLSCAASGFTFSDYGIHWVRQAPGKGLEWVAYISSGSSIHNYADTVKGRFTISRDNAKNSLYLQMNSLRAEDTAVYYCARGPNYYGSSYLLVYWGQGTLVTVSS
VL: DIQMTQSPSSLSASVGDRVTITCKASQDVNIAVAWYQQKPGKAPKLLIYSASYRYTGVPSRFSGSGSGTDFTFTISSLQPEDIATYYCQQHYNIPWTFGGGTKVEIKR
notes: Full chains; also called P2-E8H4L1

These binders were tested against T1, LILRA6-His (Acro, LI6-H82E2) (human, UniProt Q6PI73 24-447) (assay: ELISA, coated protein 1 µg/mL, antibody 10 µg/mL).
T1 construct: Bought protein. 'Human' stands at the head of the list of coated proteins; not shown: His tag
T1 sequence (Q6PI73 24-447 limits assumed): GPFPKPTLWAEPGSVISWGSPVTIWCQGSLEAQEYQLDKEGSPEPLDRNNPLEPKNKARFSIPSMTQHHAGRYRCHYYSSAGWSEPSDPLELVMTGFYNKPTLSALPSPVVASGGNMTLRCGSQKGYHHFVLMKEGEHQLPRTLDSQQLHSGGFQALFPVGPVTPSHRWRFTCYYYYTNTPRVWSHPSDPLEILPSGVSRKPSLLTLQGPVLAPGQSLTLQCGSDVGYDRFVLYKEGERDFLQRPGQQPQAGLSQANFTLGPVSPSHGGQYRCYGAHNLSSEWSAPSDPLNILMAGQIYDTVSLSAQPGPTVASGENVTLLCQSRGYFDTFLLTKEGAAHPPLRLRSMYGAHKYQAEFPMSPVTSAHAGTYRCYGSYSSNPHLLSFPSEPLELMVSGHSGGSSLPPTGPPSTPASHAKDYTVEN

absorbance at 450 nm [absorbance at 450 nm] | Binder
0.0606 | B1
0.0453 | B2
0.0461 | B3

The binders below were run against T2, LILRA4-His (SinoBiological, 16058-H08H) (human, UniProt P59901 24-446) (assay: ELISA, coated protein 1 µg/mL, antibody 10 µg/mL).
T2 construct: Bought protein. 'Human' stands at the head of the list of coated proteins; not shown: His tag
T2 sequence (P59901 24-446 limits assumed): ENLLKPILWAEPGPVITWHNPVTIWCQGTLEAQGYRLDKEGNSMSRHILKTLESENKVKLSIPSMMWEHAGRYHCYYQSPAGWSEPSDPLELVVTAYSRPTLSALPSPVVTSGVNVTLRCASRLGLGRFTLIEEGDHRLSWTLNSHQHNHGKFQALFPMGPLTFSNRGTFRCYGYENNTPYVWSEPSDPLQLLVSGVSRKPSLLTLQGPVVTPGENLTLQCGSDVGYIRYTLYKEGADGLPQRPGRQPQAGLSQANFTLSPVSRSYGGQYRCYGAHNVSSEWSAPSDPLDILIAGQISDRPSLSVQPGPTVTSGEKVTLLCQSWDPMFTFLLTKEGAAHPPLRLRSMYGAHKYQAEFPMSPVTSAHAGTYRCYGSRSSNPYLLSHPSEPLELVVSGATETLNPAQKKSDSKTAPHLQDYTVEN

absorbance at 450 nm [absorbance at 450 nm] | Binder
0.0605 | B1
0.0543 | B2
0.0504 | B3

Each binder was assayed against T3, LILRB5-His (Acro, CDC-H5220) (human, UniProt O75023 24-458, limits assumed) (assay: ELISA, coated protein 1 µg/mL, antibody 10 µg/mL).
T3 construct: Bought protein. 'Human' stands at the head of the list of coated proteins; not shown: His tag
T3 sequence (O75023 24-458 limits assumed): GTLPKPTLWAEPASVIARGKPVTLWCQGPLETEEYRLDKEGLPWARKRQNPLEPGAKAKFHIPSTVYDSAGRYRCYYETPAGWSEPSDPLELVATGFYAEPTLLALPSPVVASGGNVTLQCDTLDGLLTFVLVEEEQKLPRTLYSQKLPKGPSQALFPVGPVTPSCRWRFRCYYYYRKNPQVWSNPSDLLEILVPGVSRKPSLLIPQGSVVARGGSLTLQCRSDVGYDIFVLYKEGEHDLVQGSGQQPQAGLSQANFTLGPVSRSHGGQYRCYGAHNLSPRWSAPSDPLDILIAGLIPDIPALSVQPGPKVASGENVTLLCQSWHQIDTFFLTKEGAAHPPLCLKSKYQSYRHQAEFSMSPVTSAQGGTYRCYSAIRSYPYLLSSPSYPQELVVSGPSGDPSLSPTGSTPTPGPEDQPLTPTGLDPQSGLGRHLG

absorbance at 450 nm [absorbance at 450 nm] | Binder
0.0563 | B1
0.0663 | B2
0.0489 | B3

These binders were tested against T4, His-tagged ILT3 protein extracellular domain: ILT3-His (human, UniProt Q8NHJ6 22-259) (assay: ELISA, coated protein 1 µg/mL, antibody 10 µg/mL).
T4 construct: The entry is the whole construct, with the His tag

absorbance at 450 nm [absorbance at 450 nm] | Binder
0.149 | B1
0.0671 | B2
0.063 | B3

The binders below were run against T5, His-tagged ILT2 protein extracellular domain: ILT2-His (human, UniProt Q8NHL6 24-461) (assay: ELISA, coated protein 1 µg/mL, antibody 10 µg/mL).
T5 construct: The entry is the whole construct, with the His tag; also called human ILT2 protein
T5 sequence (Q8NHL6 other isoform, or with tags, fused parts or gaps): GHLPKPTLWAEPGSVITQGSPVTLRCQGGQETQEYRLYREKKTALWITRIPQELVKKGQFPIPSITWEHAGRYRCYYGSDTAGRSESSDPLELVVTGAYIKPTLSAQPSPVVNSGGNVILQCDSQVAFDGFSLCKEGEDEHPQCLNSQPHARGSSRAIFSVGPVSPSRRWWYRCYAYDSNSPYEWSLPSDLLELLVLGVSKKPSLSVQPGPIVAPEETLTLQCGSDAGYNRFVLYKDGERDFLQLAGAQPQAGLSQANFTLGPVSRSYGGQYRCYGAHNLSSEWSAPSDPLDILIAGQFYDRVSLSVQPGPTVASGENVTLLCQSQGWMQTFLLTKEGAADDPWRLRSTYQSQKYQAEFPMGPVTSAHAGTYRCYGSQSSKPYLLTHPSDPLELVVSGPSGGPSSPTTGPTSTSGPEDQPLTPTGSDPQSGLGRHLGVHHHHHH

absorbance at 450 nm [absorbance at 450 nm] | Binder
0.0621 | B1
0.0517 | B2
0.0569 | B3

These binders were tested against T6, LILRA3-His (Acro, LI3-H82E0) (human, UniProt Q8N6C8 24-439) (assay: ELISA, coated protein 1 µg/mL, antibody 10 µg/mL).
T6 construct: Bought protein. 'Human' stands at the head of the list of coated proteins; not shown: His tag
T6 sequence (Q8N6C8 24-439 limits assumed): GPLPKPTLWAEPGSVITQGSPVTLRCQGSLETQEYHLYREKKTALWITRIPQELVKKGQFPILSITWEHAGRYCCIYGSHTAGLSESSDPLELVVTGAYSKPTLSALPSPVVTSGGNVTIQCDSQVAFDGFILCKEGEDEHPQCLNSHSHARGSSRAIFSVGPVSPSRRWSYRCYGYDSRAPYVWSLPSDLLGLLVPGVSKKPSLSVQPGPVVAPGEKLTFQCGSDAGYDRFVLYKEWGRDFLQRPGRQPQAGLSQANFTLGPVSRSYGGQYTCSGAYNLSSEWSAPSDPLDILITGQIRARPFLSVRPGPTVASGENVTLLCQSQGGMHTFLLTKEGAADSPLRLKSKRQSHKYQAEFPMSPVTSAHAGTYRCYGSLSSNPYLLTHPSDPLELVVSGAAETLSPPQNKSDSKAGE

absorbance at 450 nm [absorbance at 450 nm] | Binder
0.0613 | B1
0.0468 | B2
0.0467 | B3

What follows are binders tested against T7, LILRA2-His (Acro, LI2-H82E9) (human, UniProt Q8N149 24-449) (assay: ELISA, coated protein 1 µg/mL, antibody 10 µg/mL).
T7 construct: Bought protein. 'Human' stands at the head of the list of coated proteins; not shown: His tag
T7 sequence (Q8N149 24-449 limits assumed): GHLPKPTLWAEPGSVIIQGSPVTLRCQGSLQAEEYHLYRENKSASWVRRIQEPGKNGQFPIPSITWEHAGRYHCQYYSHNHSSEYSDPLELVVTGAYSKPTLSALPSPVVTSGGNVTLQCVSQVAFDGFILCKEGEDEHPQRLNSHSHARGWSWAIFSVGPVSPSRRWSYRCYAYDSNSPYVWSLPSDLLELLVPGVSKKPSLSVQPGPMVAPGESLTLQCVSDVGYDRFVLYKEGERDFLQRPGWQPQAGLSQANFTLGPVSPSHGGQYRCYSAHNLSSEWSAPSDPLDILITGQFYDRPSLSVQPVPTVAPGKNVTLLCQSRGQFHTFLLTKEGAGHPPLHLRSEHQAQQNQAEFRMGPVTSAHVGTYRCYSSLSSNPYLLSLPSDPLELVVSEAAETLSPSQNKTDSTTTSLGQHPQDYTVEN

absorbance at 450 nm [absorbance at 450 nm] | Binder
0.0565 | B1
0.0448 | B2
0.0516 | B3

The binders below were run against T8, LILRA5-His (Acro, LI5-H82E1) (human, UniProt A6NI73 42-268) (assay: ELISA, coated protein 1 µg/mL, antibody 10 µg/mL).
T8 construct: Bought protein. 'Human' stands at the head of the list of coated proteins; not shown: His tag
T8 sequence (A6NI73 42-268 limits assumed): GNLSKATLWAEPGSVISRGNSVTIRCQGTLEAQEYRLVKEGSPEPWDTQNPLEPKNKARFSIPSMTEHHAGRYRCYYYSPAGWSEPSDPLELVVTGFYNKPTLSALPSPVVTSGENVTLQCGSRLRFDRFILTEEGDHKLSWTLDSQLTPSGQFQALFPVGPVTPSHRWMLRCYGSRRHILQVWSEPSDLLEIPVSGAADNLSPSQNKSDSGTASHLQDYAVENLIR

absorbance at 450 nm [absorbance at 450 nm] | Binder
0.0598 | B1
0.0459 | B2
0.0467 | B3

The binders below were run against T9, His-tagged ILT4 protein extracellular domain: ILT4-His (human, UniProt Q8N423 22-460) (assay: ELISA, coated protein 1 µg/mL, antibody 10 µg/mL).
T9 construct: Expressed in 293 cells; also called human ILT4-His protein
T9 sequence (Q8N423 other isoform, or with tags, fused parts or gaps limits assumed): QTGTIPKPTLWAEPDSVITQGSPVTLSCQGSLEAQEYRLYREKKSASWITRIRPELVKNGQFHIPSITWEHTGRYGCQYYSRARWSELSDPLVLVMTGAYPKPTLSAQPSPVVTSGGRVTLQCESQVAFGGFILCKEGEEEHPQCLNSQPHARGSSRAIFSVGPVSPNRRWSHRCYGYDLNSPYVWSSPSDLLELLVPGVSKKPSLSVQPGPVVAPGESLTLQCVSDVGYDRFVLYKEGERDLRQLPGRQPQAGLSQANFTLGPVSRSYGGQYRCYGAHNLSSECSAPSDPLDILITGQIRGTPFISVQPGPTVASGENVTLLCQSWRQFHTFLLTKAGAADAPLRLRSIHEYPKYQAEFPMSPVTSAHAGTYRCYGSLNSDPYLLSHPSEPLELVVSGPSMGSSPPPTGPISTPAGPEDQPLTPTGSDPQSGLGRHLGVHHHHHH

absorbance at 450 nm [absorbance at 450 nm] | Binder
2.69 | B1
1.87 | B2
0.954 | B3

The binders below were run against T10, LILRA1-His (Acro, LI1-H82E8) (human, UniProt O75019 17-461) (assay: ELISA, coated protein 1 µg/mL, antibody 10 µg/mL).
T10 construct: Bought protein. 'Human' stands at the head of the list of coated proteins; not shown: His tag
T10 sequence (O75019 17-461 limits assumed): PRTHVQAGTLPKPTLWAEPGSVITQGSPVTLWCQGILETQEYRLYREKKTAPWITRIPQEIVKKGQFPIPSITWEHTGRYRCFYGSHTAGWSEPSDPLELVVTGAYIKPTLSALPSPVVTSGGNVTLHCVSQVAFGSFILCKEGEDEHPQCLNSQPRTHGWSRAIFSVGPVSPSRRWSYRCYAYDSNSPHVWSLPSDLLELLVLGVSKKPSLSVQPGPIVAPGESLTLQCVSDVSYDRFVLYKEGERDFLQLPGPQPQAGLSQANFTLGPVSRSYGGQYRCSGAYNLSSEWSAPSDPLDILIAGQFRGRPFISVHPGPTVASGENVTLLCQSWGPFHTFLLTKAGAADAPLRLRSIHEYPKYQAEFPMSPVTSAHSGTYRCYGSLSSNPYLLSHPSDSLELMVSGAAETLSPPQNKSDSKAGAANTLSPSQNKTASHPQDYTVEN

absorbance at 450 nm [absorbance at 450 nm] | Binder
0.0535 | B1
0.0469 | B2
0.0483 | B3

The binders below were run against T11, full-length human ILT4 protein overexpressed on cells (human, UniProt Q8N423 22-597) (assay: flow cytometry competition on CHO-S/ILT4 cells; competitor CF647-labelled HLA-G tetramer; Assay 3).
T11 construct: also called CHO-S/ILT4; ILT4 stably transfected cell strain
T11 sequence (Q8N423 other isoform, or with tags, fused parts or gaps limits assumed): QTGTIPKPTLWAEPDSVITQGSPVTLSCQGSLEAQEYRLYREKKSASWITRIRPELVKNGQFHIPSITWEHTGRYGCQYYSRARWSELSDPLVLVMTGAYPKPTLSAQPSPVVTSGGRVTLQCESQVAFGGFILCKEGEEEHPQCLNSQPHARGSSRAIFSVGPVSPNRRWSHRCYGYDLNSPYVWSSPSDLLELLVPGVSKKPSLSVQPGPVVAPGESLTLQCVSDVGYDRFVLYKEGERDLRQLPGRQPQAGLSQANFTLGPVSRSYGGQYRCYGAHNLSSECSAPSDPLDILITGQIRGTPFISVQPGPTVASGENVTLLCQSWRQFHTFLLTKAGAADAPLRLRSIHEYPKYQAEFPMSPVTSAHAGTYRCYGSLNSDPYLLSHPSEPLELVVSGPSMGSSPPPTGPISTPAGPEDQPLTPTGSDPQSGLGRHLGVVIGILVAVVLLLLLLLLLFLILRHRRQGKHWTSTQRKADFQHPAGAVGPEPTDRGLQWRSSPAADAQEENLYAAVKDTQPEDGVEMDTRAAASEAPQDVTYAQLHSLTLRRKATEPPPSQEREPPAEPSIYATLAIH

IC50 [µg/mL] | Binder
0.072 | B1

The binders below were run against T1, LILRA6-His (Acro, LI6-H82E2) (assay: ELISA, coated protein 1 µg/mL).

binding result | Binder
no binding (tested: 10 µg/mL) | B1
no binding (tested: 10 µg/mL) | B2
no binding (tested: 10 µg/mL) | B3

These binders were tested against T2, LILRA4-His (SinoBiological, 16058-H08H) (assay: ELISA, coated protein 1 µg/mL).

binding result | Binder
no binding (tested: 10 µg/mL) | B1
no binding (tested: 10 µg/mL) | B2
no binding (tested: 10 µg/mL) | B3

What follows are binders tested against T3, LILRB5-His (Acro, CDC-H5220) (assay: ELISA, coated protein 1 µg/mL).

binding result | Binder
no binding (tested: 10 µg/mL) | B1
no binding (tested: 10 µg/mL) | B2
no binding (tested: 10 µg/mL) | B3

Each binder was assayed against T4, His-tagged ILT3 protein extracellular … (assay: ELISA, coated protein 1 µg/mL).

binding result | Binder
no binding (tested: 10 µg/mL) | B1
no binding (tested: 10 µg/mL) | B2
no binding (tested: 10 µg/mL) | B3

Each binder was assayed against T5, His-tagged ILT2 protein extracellular … (assay: ELISA, coated protein 1 µg/mL).

binding result | Binder
no binding (tested: 10 µg/mL) | B1
no binding (tested: 10 µg/mL) | B2
no binding (tested: 10 µg/mL) | B3

The binders below were run against T6, LILRA3-His (Acro, LI3-H82E0) (assay: ELISA, coated protein 1 µg/mL).

binding result | Binder
no binding (tested: 10 µg/mL) | B1
no binding (tested: 10 µg/mL) | B2
no binding (tested: 10 µg/mL) | B3

What follows are binders tested against T7, LILRA2-His (Acro, LI2-H82E9) (assay: ELISA, coated protein 1 µg/mL).

binding result | Binder
no binding (tested: 10 µg/mL) | B1
no binding (tested: 10 µg/mL) | B2
no binding (tested: 10 µg/mL) | B3

Each binder was assayed against T8, LILRA5-His (Acro, LI5-H82E1) (assay: ELISA, coated protein 1 µg/mL).

binding result | Binder
no binding (tested: 10 µg/mL) | B1
no binding (tested: 10 µg/mL) | B2
no binding (tested: 10 µg/mL) | B3

Each binder was assayed against T10, LILRA1-His (Acro, LI1-H82E8) (assay: ELISA, coated protein 1 µg/mL).

binding result | Binder
no binding (tested: 10 µg/mL) | B1
no binding (tested: 10 µg/mL) | B2
no binding (tested: 10 µg/mL) | B3

These binders were tested against T9, His-tagged ILT4 protein extracellular … (assay: SPR (Biacore), antibody captured on Protein A chip, ILT4-His as analyte, 1:1 model).

Kd [nM] | koff [s⁻¹] | kon [M⁻¹ s⁻¹] | Binder
0.0543 | 6.58e-05 | 1.21e+06 | B1
0.0433 | 8.78e-05 | 2.03e+06 | B2
0.839 | 0.000186 | 222000 | B3

What follows are binders tested against T11, full-length human ILT4 protein … (assay: flow cytometry competition on CHO-S/ILT4 cells; competitor CF647-labelled HLA-G tetramer; Assay 4).

IC50 [µg/mL] | Binder
0.033 | B2
